Assay results published in publication PMC2753297.

T1: ADAM10 (immunoprecipitated with anti-ADAM10 from HEK293T cells), O14672
T1 chain: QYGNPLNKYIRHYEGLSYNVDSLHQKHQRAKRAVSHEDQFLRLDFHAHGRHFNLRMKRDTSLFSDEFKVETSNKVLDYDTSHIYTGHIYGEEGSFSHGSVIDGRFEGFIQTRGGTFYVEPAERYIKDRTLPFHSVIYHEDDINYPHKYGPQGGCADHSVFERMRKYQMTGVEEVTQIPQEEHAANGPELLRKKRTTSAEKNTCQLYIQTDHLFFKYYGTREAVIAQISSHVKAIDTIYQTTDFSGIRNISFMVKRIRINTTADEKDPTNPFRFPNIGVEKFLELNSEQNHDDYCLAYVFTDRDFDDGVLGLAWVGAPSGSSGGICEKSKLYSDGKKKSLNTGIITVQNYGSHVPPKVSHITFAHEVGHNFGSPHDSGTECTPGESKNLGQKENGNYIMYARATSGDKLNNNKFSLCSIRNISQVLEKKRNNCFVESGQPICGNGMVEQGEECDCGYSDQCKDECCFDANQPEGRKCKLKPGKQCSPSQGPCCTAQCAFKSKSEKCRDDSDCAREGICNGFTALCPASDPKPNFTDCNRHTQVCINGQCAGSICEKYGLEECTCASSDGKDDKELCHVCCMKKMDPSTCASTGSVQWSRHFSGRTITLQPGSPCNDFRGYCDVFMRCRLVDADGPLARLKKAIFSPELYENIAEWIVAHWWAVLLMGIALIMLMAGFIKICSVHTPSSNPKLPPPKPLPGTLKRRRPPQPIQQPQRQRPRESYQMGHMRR


Biological target: T1, ADAM10 (immunoprecipitated with …)
Experiment: co-immunoprecipitation (ADAM10 IP, EphA3 immunoblot, quantified)
Conditions: chain shown with the change; ephrin-A5-treated EphA3-transfected cells; n = 2 experiments; parent: est. 1.1; read off a plot; scale: ratio of EphA3 co-IP/lysate, EphA3[2YE] as internal reference

response	Binder
0.42	Wt EphA3-GFP, P29320 Y596E; Y602E; K653M (protein) ELIPQPSNEVNLLDSKTIQGELGWISYPSHGWEEISGVDEHYTPIRTYQVCNVMDHSQNNWLRTNWVPRNSAQKIYVELKFTLRDCNSIPLVLGTCKETFNLYYMESDDDHGVKFREHQFTKIDTIAADESFTQMDLGDRILKLNTEIREVGPVNKKGFYLAFQDVGACVALVSVRVYFKKCPFTVKNLAMFPDTVPMDSQSLVEVRGSCVNNSKEEDPPRMYCSTEGEWLVPIGKCSCNAGYEERGFMCQACRPGFYKALDGNMKCAKCPPHSSTQEDGSMNCRCENNYFRADKDPPSMACTRPPSSPRNVISNINETSVILDWSWPLDTGGRKDVTFNIICKKCGWNIKQCEPCSPNVRFLPRQFGLTNTTVTVTDLLAHTNYTFEIDAVNGVSELSSPPRQFAAVSITTNQAAPSPVLTIKKDRTSRNSISLSWQEPEHPNGIILDYEVKYYEKQEQETSYTILRARGTNVTISSLKPDTIYVFQIRARTAAGYGTNSRKFEFETSPDSFSISGESSQVVMIAISAAVAIILLTVVIYVLIGRFCGYKSKHGADEKRLHFGNGHLKLPGLRTEVDPHTEEDPTQAVHEFAKELDATNISIDKVVGAGEFGEVCSGRLKLPSKKEISVAIMTLKVGYTEKQRRDFLGEASIMGQFDHPNIIRLEGVVTKSKPVMIVTEYMENGSLDSFLRKHDAQFTVIQLVGMLRGIASGMKYLSDMGYVHRDLAARNILINSNLVCKVSDFGLSRVLEDDPEAAYTTRGGKIPIRWTSPEAIAYRKFTSASDVWSYGIVLWEVMSYGERPYWEMSNQDVIKAVDEGYRLPPPMDCPAALYQLMLDCWQKDRNNRPKFEQIVSILDKLIRNPGSLKIITSAAARPSNLLLDQSNVDITTFRTTGDWLNGVWTAHCKEIFTGVEYSSCDTIAKISTDDMKKVGVTVVGPQKKIISSIKALETQSKNGPVPV
1	Wt EphA3-GFP, P29320 Y596E; Y602E (protein) ELIPQPSNEVNLLDSKTIQGELGWISYPSHGWEEISGVDEHYTPIRTYQVCNVMDHSQNNWLRTNWVPRNSAQKIYVELKFTLRDCNSIPLVLGTCKETFNLYYMESDDDHGVKFREHQFTKIDTIAADESFTQMDLGDRILKLNTEIREVGPVNKKGFYLAFQDVGACVALVSVRVYFKKCPFTVKNLAMFPDTVPMDSQSLVEVRGSCVNNSKEEDPPRMYCSTEGEWLVPIGKCSCNAGYEERGFMCQACRPGFYKALDGNMKCAKCPPHSSTQEDGSMNCRCENNYFRADKDPPSMACTRPPSSPRNVISNINETSVILDWSWPLDTGGRKDVTFNIICKKCGWNIKQCEPCSPNVRFLPRQFGLTNTTVTVTDLLAHTNYTFEIDAVNGVSELSSPPRQFAAVSITTNQAAPSPVLTIKKDRTSRNSISLSWQEPEHPNGIILDYEVKYYEKQEQETSYTILRARGTNVTISSLKPDTIYVFQIRARTAAGYGTNSRKFEFETSPDSFSISGESSQVVMIAISAAVAIILLTVVIYVLIGRFCGYKSKHGADEKRLHFGNGHLKLPGLRTEVDPHTEEDPTQAVHEFAKELDATNISIDKVVGAGEFGEVCSGRLKLPSKKEISVAIKTLKVGYTEKQRRDFLGEASIMGQFDHPNIIRLEGVVTKSKPVMIVTEYMENGSLDSFLRKHDAQFTVIQLVGMLRGIASGMKYLSDMGYVHRDLAARNILINSNLVCKVSDFGLSRVLEDDPEAAYTTRGGKIPIRWTSPEAIAYRKFTSASDVWSYGIVLWEVMSYGERPYWEMSNQDVIKAVDEGYRLPPPMDCPAALYQLMLDCWQKDRNNRPKFEQIVSILDKLIRNPGSLKIITSAAARPSNLLLDQSNVDITTFRTTGDWLNGVWTAHCKEIFTGVEYSSCDTIAKISTDDMKKVGVTVVGPQKKIISSIKALETQSKNGPVPV
